Measured values reported in paper PMC7049685, “The C-terminal tail of the yeast mitochondrial transcription factor Mtf1 coordinates template strand alignment, DNA scrunching and timely transition into elongation” (Nucleic Acids Research, 2020).
Like-named read-outs stand apart in the source and are kept apart here.

Key:
[1] = molecular target: T1, Rpo41-Mtf1 (yeast mitochondrial RNA polymerase with initiation factor Mtf1) on promoter DNA (Saccharomyces cerevisiae, UniProt P13433); assay: 2-aminopurine fluorescence titration, hyperbolic fit; format: binding; details: composite Kd of +1 and +2 initiating ATP; 15S rRNA AA promoter with 2AP at -1 (200 nM), 400 nM Rpo41 and Mtf1-Δ20, 10 mM Mg acetate, pH 7.5, 25 °C
T1 construct: assembled on 15S or 21S rRNA promoter DNA; with Mitochondrial transcription factor 1
T1 sequence (P13433 1-1351): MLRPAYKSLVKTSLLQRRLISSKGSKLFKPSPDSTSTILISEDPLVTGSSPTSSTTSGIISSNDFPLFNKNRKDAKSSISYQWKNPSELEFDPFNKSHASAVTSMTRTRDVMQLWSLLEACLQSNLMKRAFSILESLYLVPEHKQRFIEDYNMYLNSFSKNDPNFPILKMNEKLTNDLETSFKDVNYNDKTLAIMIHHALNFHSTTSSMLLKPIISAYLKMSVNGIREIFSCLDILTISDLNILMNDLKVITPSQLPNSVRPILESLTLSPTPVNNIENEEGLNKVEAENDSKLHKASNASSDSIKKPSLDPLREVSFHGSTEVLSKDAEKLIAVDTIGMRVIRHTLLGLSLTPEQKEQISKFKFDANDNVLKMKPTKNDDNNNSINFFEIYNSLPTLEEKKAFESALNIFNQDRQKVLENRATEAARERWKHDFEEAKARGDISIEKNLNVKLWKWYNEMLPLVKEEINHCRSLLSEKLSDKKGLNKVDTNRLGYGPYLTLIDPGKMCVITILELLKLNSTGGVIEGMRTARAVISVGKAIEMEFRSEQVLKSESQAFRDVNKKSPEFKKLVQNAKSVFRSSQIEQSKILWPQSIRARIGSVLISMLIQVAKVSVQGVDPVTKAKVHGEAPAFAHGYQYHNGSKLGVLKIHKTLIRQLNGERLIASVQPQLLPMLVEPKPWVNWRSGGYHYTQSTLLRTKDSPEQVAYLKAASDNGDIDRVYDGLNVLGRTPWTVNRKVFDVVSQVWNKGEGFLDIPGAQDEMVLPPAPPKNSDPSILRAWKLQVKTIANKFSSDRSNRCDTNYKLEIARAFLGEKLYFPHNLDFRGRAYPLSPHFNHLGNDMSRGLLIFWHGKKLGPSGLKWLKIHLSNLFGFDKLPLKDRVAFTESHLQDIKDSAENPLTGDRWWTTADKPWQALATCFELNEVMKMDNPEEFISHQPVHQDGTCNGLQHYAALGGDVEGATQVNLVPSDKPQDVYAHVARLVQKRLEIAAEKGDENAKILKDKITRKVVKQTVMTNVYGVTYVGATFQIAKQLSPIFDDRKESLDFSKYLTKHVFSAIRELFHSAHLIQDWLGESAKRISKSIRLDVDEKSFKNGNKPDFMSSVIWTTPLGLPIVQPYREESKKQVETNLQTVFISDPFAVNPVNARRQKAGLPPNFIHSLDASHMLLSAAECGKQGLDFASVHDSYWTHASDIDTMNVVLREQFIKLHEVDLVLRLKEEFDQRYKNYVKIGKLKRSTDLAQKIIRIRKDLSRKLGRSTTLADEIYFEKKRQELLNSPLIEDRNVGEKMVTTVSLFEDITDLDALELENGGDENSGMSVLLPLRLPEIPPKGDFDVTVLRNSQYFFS
T1 sequence (P14908 2-341 partner): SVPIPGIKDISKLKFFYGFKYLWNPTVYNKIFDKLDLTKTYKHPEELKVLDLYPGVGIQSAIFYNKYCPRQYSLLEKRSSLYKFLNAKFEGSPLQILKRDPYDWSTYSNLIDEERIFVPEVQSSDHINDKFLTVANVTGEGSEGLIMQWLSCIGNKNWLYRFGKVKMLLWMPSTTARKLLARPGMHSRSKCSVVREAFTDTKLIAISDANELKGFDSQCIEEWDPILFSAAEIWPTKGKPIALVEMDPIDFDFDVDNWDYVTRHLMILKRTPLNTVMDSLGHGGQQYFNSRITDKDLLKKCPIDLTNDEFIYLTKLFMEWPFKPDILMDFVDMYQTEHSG

[2] = molecular target: T1, Rpo41-Mtf1 (yeast mitochondrial RNA polymerase with initiation factor Mtf1) on promoter DNA; assay: radiometric gel assay of 2-mer RNA synthesis, Michaelis-Menten fit; format: biochemical; details: 21S rRNA AA promoter, [γ-32P]ATP, 1 μM Rpo41, 2 μM Mtf1-Δ20, 10 mM Mg acetate, pH 7.5, 25 °C
[3] = molecular target: T1, Rpo41-Mtf1 (yeast mitochondrial RNA polymerase with initiation factor Mtf1) on promoter DNA; assay: 2-aminopurine fluorescence titration, hyperbolic fit; format: binding
[4] = substrate: Nc1ncnc2c1ncn2[C@@H]1O[C@H](COP(=O)(O)OP(=O)(O)OP(=O)(O)O)[C@@H](O)[C@H]1O; assay: radiometric gel assay of 2-mer RNA synthesis, Michaelis-Menten fit; format: biochemical, Saccharomyces cerevisiae; details: 21S rRNA AA promoter, [γ-32P]ATP, 1 μM Rpo41, 2 μM Mtf1, 10 mM Mg acetate, pH 7.5, 25 °C
[5] = molecular target: Rpo41;Mtf1-Δ16 (Saccharomyces cerevisiae;Saccharomyces …, UniProt P13433;P14908 28-1351;1-325, |); assay: fluorescence anisotropy; 10 mM Mg acetate; Kd in Figure S2C table not in the material; 50 mM Tris-acetate pH 7.5, 100 mM potassium glutamate, 10 mM magnesium acetate, 0.01% Tween-20, 25 °C; 5 nM TAMRA-DNA; details: protein: recombinant;recombinant; tags: ;; copies: 1;1; label: TAMRA at 5' end of template strand (strand 2); blunt
Sequence of Rpo41;Mtf1-Δ16 (P14908 1-325, stated change not applied, one chain of several): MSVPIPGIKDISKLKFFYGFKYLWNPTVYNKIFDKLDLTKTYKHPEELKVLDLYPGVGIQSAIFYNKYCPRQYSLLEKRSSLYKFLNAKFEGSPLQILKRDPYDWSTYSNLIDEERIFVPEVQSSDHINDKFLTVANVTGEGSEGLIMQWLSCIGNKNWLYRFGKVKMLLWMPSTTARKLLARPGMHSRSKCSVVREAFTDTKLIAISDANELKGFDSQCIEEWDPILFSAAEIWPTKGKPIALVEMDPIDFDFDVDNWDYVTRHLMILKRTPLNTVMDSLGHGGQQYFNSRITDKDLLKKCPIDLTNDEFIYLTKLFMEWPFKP

[6] = molecular target: Rpo41;Mtf1-Δ20 (Saccharomyces cerevisiae;Saccharomyces …, UniProt P13433;P14908 28-1351;1-321, |); assay: fluorescence anisotropy; 10 mM Mg acetate; 50 mM Tris-acetate pH 7.5, 100 mM potassium glutamate, 10 mM magnesium acetate, 0.01% Tween-20, 25 °C; 5 nM TAMRA-DNA; details: protein: recombinant;recombinant; tags: ;; copies: 1;1; label: TAMRA at 5' end of template strand (strand 2); blunt
Sequence of Rpo41;Mtf1-Δ20 (P14908 1-321, stated change not applied, chain 2 of 2, one chain of several): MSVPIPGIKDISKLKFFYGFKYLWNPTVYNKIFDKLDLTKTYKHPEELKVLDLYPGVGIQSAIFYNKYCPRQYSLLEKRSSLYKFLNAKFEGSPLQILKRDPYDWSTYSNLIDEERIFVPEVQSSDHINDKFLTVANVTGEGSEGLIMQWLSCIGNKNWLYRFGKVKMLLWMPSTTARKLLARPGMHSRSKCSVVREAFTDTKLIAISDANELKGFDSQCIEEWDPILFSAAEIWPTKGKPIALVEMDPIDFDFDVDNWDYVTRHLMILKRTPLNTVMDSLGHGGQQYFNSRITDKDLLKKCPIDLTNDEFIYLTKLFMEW

[7] = molecular target: T2, Rpo41;Mtf1-WT (Saccharomyces cerevisiae;Saccharomyces …, UniProt P13433;P14908 28-1351;1-341, |); assay: as above; details: protein: recombinant;recombinant; tags: ;; copies: 1;1; label: TAMRA at 5' end of template strand (strand 2); blunt
[8] = molecular target: T2, Rpo41;Mtf1-WT; assay: single-molecule FRET; no initiating nucleotides; EFRET 0.14 to 0.38; 50 mM Tris-acetate pH 7.5, 100 mM potassium glutamate, 10 mM magnesium acetate, 0.01% Tween-20, 25 °C; 5 nM TAMRA-DNA; details: protein: recombinant;recombinant; tags: ;; copies: 1;1; label: FRET donor and acceptor (Cy3, Cy5)

Nc1ncnc2c1ncn2[C@@H]1O[C@H](COP(=O)(O)OP(=O)(O)OP(=O)(O)O)[C@@H](O)[C@H]1O [ATP]
Kd [1]: 500 µM
Km [2]: 364 µM
Kd [3]: 65 µM

B1: Rpo41-Mtf1 (yeast mitochondrial RNA polymerase with initiation factor Mtf1) on promoter DNA (Saccharomyces cerevisiae S288C) (protein)
chain: MLRPAYKSLVKTSLLQRRLISSKGSKLFKPSPDSTSTILISEDPLVTGSSPTSSTTSGIISSNDFPLFNKNRKDAKSSISYQWKNPSELEFDPFNKSHASAVTSMTRTRDVMQLWSLLEACLQSNLMKRAFSILESLYLVPEHKQRFIEDYNMYLNSFSKNDPNFPILKMNEKLTNDLETSFKDVNYNDKTLAIMIHHALNFHSTTSSMLLKPIISAYLKMSVNGIREIFSCLDILTISDLNILMNDLKVITPSQLPNSVRPILESLTLSPTPVNNIENEEGLNKVEAENDSKLHKASNASSDSIKKPSLDPLREVSFHGSTEVLSKDAEKLIAVDTIGMRVIRHTLLGLSLTPEQKEQISKFKFDANDNVLKMKPTKNDDNNNSINFFEIYNSLPTLEEKKAFESALNIFNQDRQKVLENRATEAARERWKHDFEEAKARGDISIEKNLNVKLWKWYNEMLPLVKEEINHCRSLLSEKLSDKKGLNKVDTNRLGYGPYLTLIDPGKMCVITILELLKLNSTGGVIEGMRTARAVISVGKAIEMEFRSEQVLKSESQAFRDVNKKSPEFKKLVQNAKSVFRSSQIEQSKILWPQSIRARIGSVLISMLIQVAKVSVQGVDPVTKAKVHGEAPAFAHGYQYHNGSKLGVLKIHKTLIRQLNGERLIASVQPQLLPMLVEPKPWVNWRSGGYHYTQSTLLRTKDSPEQVAYLKAASDNGDIDRVYDGLNVLGRTPWTVNRKVFDVVSQVWNKGEGFLDIPGAQDEMVLPPAPPKNSDPSILRAWKLQVKTIANKFSSDRSNRCDTNYKLEIARAFLGEKLYFPHNLDFRGRAYPLSPHFNHLGNDMSRGLLIFWHGKKLGPSGLKWLKIHLSNLFGFDKLPLKDRVAFTESHLQDIKDSAENPLTGDRWWTTADKPWQALATCFELNEVMKMDNPEEFISHQPVHQDGTCNGLQHYAALGGDVEGATQVNLVPSDKPQDVYAHVARLVQKRLEIAAEKGDENAKILKDKITRKVVKQTVMTNVYGVTYVGATFQIAKQLSPIFDDRKESLDFSKYLTKHVFSAIRELFHSAHLIQDWLGESAKRISKSIRLDVDEKSFKNGNKPDFMSSVIWTTPLGLPIVQPYREESKKQVETNLQTVFISDPFAVNPVNARRQKAGLPPNFIHSLDASHMLLSAAECGKQGLDFASVHDSYWTHASDIDTMNVVLREQFIKLHEVDLVLRLKEEFDQRYKNYVKIGKLKRSTDLAQKIIRIRKDLSRKLGRSTTLADEIYFEKKRQELLNSPLIEDRNVGEKMVTTVSLFEDITDLDALELENGGDENSGMSVLLPLRLPEIPPKGDFDVTVLRNSQYFFS
notes: assembled on 15S or 21S rRNA promoter DNA; with Mitochondrial transcription factor 1
Km [4]: 165 µM
kcat [4]: 0.4 s⁻¹

B2: 15S rRNA AA promoter -12 to +8 (dsDNA)
DNA 1: TATTATATAAGTAATAAATA
DNA 2: TATTTATTACTTATATAATA
binding signal [5]: ~7 fold weaker than Mtf1-WT
Kd [6]: 0.00081 ± 0.0001 µM
Kd [7]: 0.00012 ± 5e-05 µM

B3: smFRET promoter DNA template (position 0) (dsDNA)
DNA 1: TGGCCACGGCAGCGAGGCTATTATATATATAAGTAGTAACAAGTAGAATA
DNA 2: TATTCTACTTGTTACTACTTATATATATAATAGCCTCGCTGCCGTGGCCA
binding result [8]: binds
